Experimental data: US20120316071A1 (published 2012)
Numbering of substitutions follows the chain as printed. Numbers in names are those of the source.

Experiments:
[1] = target: T1, rHuman Erythropoietin R/Fc Chimera, CF (R&D Systems Cat#963-ER) (human, UniProt P19235 25-250); assay: Multispot ECL (MSD) titration; antigen spotted on plate; Fab 98.1 nM; blank spot 210
T1 construct: Bought Fc chimera; also called EPO R/Fc; EPO R; Fc part of the bought chimera not given
T1 sequence (looked up): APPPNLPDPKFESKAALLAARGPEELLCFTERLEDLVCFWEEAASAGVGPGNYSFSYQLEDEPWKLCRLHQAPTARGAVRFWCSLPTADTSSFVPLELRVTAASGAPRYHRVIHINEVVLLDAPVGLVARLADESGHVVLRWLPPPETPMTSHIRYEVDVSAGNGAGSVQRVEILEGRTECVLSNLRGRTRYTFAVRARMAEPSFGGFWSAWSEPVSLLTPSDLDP

[2] = target: T2, rHuman IGF-1 sR (IGF-1 sR), CF (R&D Systems Cat#391-GR) (human, UniProt P08069 31-932); assay: as above
T2 construct: Bought soluble receptor; also called insulin-like growth factor-1 soluble receptor

[3] = target: T3, rHuman Notch-1/Fc Chimera, CF (R&D Systems Cat#3647-TK) (human, UniProt P46531 19-526); assay: as above
T3 construct: Bought Fc chimera; Fc part of the bought chimera not given

[4] = target: T4, rHuman ErbB2/Fc Chimera, CF (R&D Systems Cat#1129-ER) (human, UniProt P04626 23-652); assay: as above
T4 construct: Bought Fc chimera; also called human epidermal growth factor 2 receptor; Fc part of the bought chimera not given

[5] = target: T5, rHuman HGF R/c-MET/Fc Chimera, CF (R&D Systems Cat#358-MT/CF) (human, UniProt P08581 25-932); assay: as above
T5 construct: Bought Fc chimera; also called HGF R/Fc; hepatocyte growth factor receptor; Fc part of the bought chimera not given

[6] = target: T6, rHuman CD44/Fc Chimera, CF (R&D Systems Cat#3660-CD) (human, UniProt P16070 21-220); assay: as above
T6 construct: Bought Fc chimera; Fc part of the bought chimera not given

[7] = target: T7, Recombinant Human DLL4 (R&D Systems Cat#1506-D4/CF) (human, UniProt Q9NR61 27-524); assay: as above
T7 construct: Bought recombinant protein; also called delta-like protein 4; rHuman DLL4

[8] = target: T8, rHuman P-Cadherin/Fc Chimera, CF (R&D Systems Cat#861-PC) (human, UniProt P22223 108-654); assay: as above
T8 construct: Bought Fc chimera; Fc part of the bought chimera not given

[9] = target: T9, rHuman CD44/Fc Chimera, CF (R&D Systems Cat#3660-CD) (human, UniProt P16070 21-220); assay: ECL Multispot (MSD), antigen spotted; Fab 0.50 (µM); blank 142
T9 construct: Bought recombinant protein; Fc part of the bought chimera not given

[10] = target: T10, rHuman P-Cadherin/Fc Chimera, CF (R&D Systems Cat#861-PC) (human, UniProt P22223 108-654); assay: as above
T10 construct: Bought recombinant protein; Fc part of the bought chimera not given

[11] = target: T11, rHuman ErbB2/Fc Chimera, CF (R&D Systems Cat#1129-ER) (human, UniProt P04626 23-652); assay: as above
T11 construct: Bought recombinant protein; Fc part of the bought chimera not given

[12] = target: T12, rHuman EGF R/Fc Chimera, CF (R&D Systems Cat#344-ER) (human, UniProt P00533 25-645); assay: as above
T12 construct: Bought recombinant protein; Fc part of the bought chimera not given

[13] = target: T13, rHuman IGF-1 sR, CF (R&D Systems Cat#391-GR) (human, UniProt P08069 31-932); assay: as above
T13 construct: Bought recombinant soluble receptor; also called insulin-like growth factor-1 soluble receptor

[14] = target: T14, Recombinant Human DLL4 (R&D Systems Cat#1506-D4/CF) (human, UniProt Q9NR61 27-529); assay: as above
T14 construct: Bought recombinant protein; also called delta-like protein 4; rHuman DLL4

[15] = target: T15, rHuman Erythropoietin R/Fc Chimera, CF (R&D Systems Cat#963-ER) (human, UniProt P19235 25-250); assay: as above
T15 construct: Bought recombinant protein; also called EPO R; EPO R/Fc; Fc part of the bought chimera not given
T15 sequence (looked up): T1 sequence (looked up)

[16] = target: T16, rHuman Notch-1/Fc Chimera, CF (R&D Systems Cat#3647-TK) (human, UniProt P46531 19-526); assay: as above
T16 construct: Bought recombinant protein; Fc part of the bought chimera not given

[17] = target: T17, rHuman HGF R/c-MET/Fc Chimera, CF (R&D Systems Cat#358-MT/CF) (human, UniProt P08581 25-932); assay: as above
T17 construct: Bought recombinant protein; also called HGF R/Fc; Fc part of the bought chimera not given

[18] = target: T18, rHuman Notch-1/Fc Chimera, CF (R&D Systems Cat#3647-TK) (human, UniProt P46531 19-526); assay: Multispot ECL (MSD), antigen spotted on plate, Fab 7.8 nM; blank spot 316
T18 construct: Bought recombinant protein; Fc part of the bought chimera not given

[19] = target: T18, rHuman Notch-1/Fc Chimera, CF (R&D …); assay: Multispot ECL (MSD), antigen spotted on plate, Fab 31.3 nM; blank spot 250

B1: Fab VH1-46_IGHD3-10*01_IGHJ4*01 & O1_IGKJ1*01 (Fab, V domains shown)
VH: QVQLVQSGAEVKKPGASVKVSCKASGYTFTSYYMHWVRQAPGQGLEWMGIINPSGGSTSYAQKFQGRVTMTRDTSTSTVYMELSSLRSEDTAVYYCAREYYYGSGSYYNDYFDYWGQGTLVTVSS
VL: DIVMTQTPLSLPVTPGEPASISCRSSQSLLDSDDGNTYLDWYLQKPGQSPQLLIYTLSYRASGVPDRFSGSGSGTDFTLKISRVEAEDVGVYYCMQRIEFPSWTFGQGTKVEIKR
notes: Germline library Fab expressed in E. coli; VH was cloned into Plasmid A (CH1 constant region, His6 and Flag tags); The kappa VL was cloned into Plasmid C (kappa CL)
- ECL signal [1]: 5630
- ECL signal [2]: 309
- ECL signal [3]: 313
- ECL signal [4]: 247
- ECL signal [5]: 335
- ECL signal [6]: 265
- ECL signal [7]: 402
- ECL signal [8]: 347

B2: Fab VH1-46_IGHD6-6*01_IGHJ1*01 S102A/S103P/S104F (APF) & L6_IGKJ1*01 (Fab, V domains shown)
VH: QVQLVQSGAEVKKPGASVKVSCKASGYTFTSYYMHWVRQAPGQGLEWMGIINPSGGSTSYAQKFQGRVTMTRDTSTSTVYMELSSLRSEDTAVYYCAREEYAPFSAEYFQHWGQGTLVTVSS
VL: not shown
notes: Tested as a Fab made in E. coli: VH cloned in Plasmid A (CH1 constant region, His6 and Flag tags), VL in Plasmid C (kappa constant region); also called H:APF & L:wt; APF triple mutant
- ECL signal [9]: 207
- ECL signal [10]: 161
- ECL signal [11]: 199
- ECL signal [12]: 152
- ECL signal [13]: 190
- ECL signal [14]: 6670
- ECL signal [15]: 235
- ECL signal [16]: 230
- ECL signal [17]: 182

B3: Fab VH1-46_IGHD6-13*01_IGHJ4*01 & B3_IGKJ1*01 (Fab, V domains shown)
VH: B2 VH with E100G, A102S, P103S, F104S, S105W, A106Y, E107D, Q110D, H111Y
VL: not shown
notes: Germline Fab made in E. coli; VH was cloned into Plasmid A (CH1, His6 and Flag tags) and the kappa VL into Plasmid C (kappa CL)
- ECL signal [18]: 486
- ECL signal [19]: 563
